Assay [1] addresses T1, GST-Brk (full length GST-PTK6/Brk, SignalChem) (UniProt Q13882 1-451).
T1 construct: mature; Bought enzyme; also called full length Brk; GST-tagged Brk; not shown: glutathione S-transferase (GST) tag
In words: immunoprecipitation with GST antibodies, p27 immunoblot. The source says:
The reactions were probed by immunoblot analysis with pY88 and pY74 antibodies (FIG. 3C).
(In western blotting, separated proteins are transferred to a membrane and probed.)

The target of assay [2] is T2, SH3 domain of Abl displayed on phage (UniProt P00519 61-121, limits assumed).
T2 construct: domain: SH3; also called Abl-SH3
The experiment in a line: phage-ELISA on immobilised GST-K2.

In assay [3] the target is T3, SH3 domain of Yes displayed on phage (UniProt P07947 91-152, limits assumed).
T3 construct: domain: SH3; also called Yes-SH3
The experiment in a line: phage-ELISA on immobilised GST-K2. (In general: An ELISA detects its analyte on a solid surface through an enzyme-linked reagent.)

T2 sequence (P00519 61-121 limits assumed): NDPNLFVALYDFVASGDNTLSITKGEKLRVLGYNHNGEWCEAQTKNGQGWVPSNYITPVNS
T3 sequence (P07947 91-152 limits assumed): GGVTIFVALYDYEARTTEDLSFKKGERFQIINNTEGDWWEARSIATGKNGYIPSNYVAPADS

B1: F58-106 (Flag tagged K1-site containing peptide, p27 residues 58 to 106) (peptide)
peptide: RKWNFDFQNHKPLEGKYEWQEVEKGSLPEFYYRPPRPPKGACKVPAQES
notes: not shown: Flag tag
B1: the binding result in assay [1] was “binds”.

B2: GST-K2 (N-terminally GST-tagged p27 K2 PxxP peptide) (peptide)
chain: DVSGSRPAAPLIGAPA
notes: also called K2 peptide; K2 site; not shown: glutathione S-transferase (GST) tag of the pGEX-KG vector, N-terminal
Take B2: the binding result in assay [2] and in assay [3] was “no binding” in each case.
